From FireProtDB (doi:10.1002/pro.100)

Details: Homo sapiens, 25 °C, Urea, Fluorescence, Potassium phosphate 25 mM, NaCl 25 mM, reversible: Yes, whole UniProt chain shown

B1: Prolactin wild type, P01236 (protein)
chain: MNIKGSPWKGSLLLLLVSNLLLCQSVAPLPICPGGAARCQVTLRDLFDRAVVLSHYIHNLSSEMFSEFDKRYTHGRGFITKAINSCHTSSLATPEDKEQAQQMNQKDFLSLIVSILRSWNEPLYHLVTEVRGMQEAPEAILSKAVEIEEQTKRLLEGMELIVSQVHPETKENEIYPVWSGLPSLQMADEESRLSAYYNLLHCLRRDSHKIDNYLKLLKCRIIHNNNC
pH 5.8
  denaturant m value: 0.79 kcal/mol/M
  denaturant midpoint (higher = more stable): 5.48 M
  unfolding free energy: 4.3 kcal/mol
pH 7.8
  denaturant m value: 1.35 kcal/mol/M
  denaturant midpoint (higher = more stable): 6.08 M
  unfolding free energy: 8.2 kcal/mol
